Results published in patent publication US12186353B2, “Method of reducing neuronal microtubule binding protein Tau (Tau) levels” (ADAERATA, LIMITED PARTNERSHIP, priority 2018, dated 2025).

Key:
Assay type in all cases: cell-based
Tau::GFP fusion protein = test: Intracellular Tau::GFP fluorescence in stable inducible HEK293 cells with proteasome or lysosome inhibitor; details: stable inducible HEK293, Numb72 vs control empty vector, fixed 48 h after doxycycline
Method: FIG. 7A Stable inducible cell line HEK293 that express a Tau::GFP fusion protein was transfected with Control Myc or Numb72::Myc, and the Tau::GFP expression was activated by adding Doxycycline 6 h later. The cells were fixed 48 h later and stained for Myc. FIG. 7B. The mean intensity (±SEM) of intracellular Tau::GFP fluorescence in transfected cells was quantified. Cells were treated with vehicle, MG132 (a proteasome inhibitor, 25 uM) or Chloroquine (a lysosome inhibitor, 25 uM) for 4 h before fixation and Myc staining. Quantification represents mean intensity +/− SEM, *p≤0.01; Anova 1-way test.
The potential role of the proteasome and of the lysosome on the ability of Numb to reduce Tau levels was assessed. A stable inducible cell line (HEK293) expressing a Tau::GFP fusion protein was transfected with
Numb72 or a control empty vector. The intracellular Tau::GFP levels was compared when the cells were treated with a proteasome inhibitor (MG132), a lysosome inhibitor (Chloroquine) or a control (vehicle). […] (FIGS. 7A-B).

human Tau fused with GFP = test: Flow cytometry of Tau-GFP over DsRed in DAOY cells transfected with Numb isoforms; details: three days after transfection, compared to controls (Myc-Tag)
Source text: FIGS. 6A-I: Isoform Numb-72 interacts with Tau and regulates Tau level. FIG. 6A. Schematic of 4 Numb isoforms, differing with the presence or the absence of an insertion (arrowhead) in PTB domain arrowhead, and the presence or the absence of an insertion in the proline-rich region (PRR). FIG. 6B. Coimmunoprecipitation of Tau and 4 isoforms of Numb in HEK293 cells. Each Numb isoform was transfected in HEK293T cells together with a flag-tagged version of Tau and immunoprecipitation was perform 24 hours later with a flag antibody and blotted for Numb. […] FIG. 6C. Detection of Tau::GFP level in presence of 4 isoforms of Numb by western blot in HEK293. All the Numb isoforms were transfected with a Tau::GFP fusion protein in HEK293T cells and the levels of Tau::GFP was analysed by western blot 48 hours after transfection. FIG. 6D. […] DsRed-IRES-Tau::EGFP expressing cells were used to assess the abundance of Tau by monitoring the Tau-GFP to DsRed fluorescence ratio. […] FIGS. 6F-J. Fluorescence-activated cell sorting (FACs) analysis of the 4 Numb isoforms affected 3 days after transfection on ratio DsRed versus DsRed and GFP-positives cells compared to the control (Myc-Tag). FIG. 6K Quantification represents fold change for 5 experiments, +/− SEM, **p≤0.001; n.s. non-significant Anova 1-way test. […]

Tau [1] = test: Western blot of Tau fusion protein levels in HEK293T cells co-expressing Numb isoforms; details: 48 hours after transfection
Source text: FIGS. 6A-I: Isoform Numb-72 interacts with Tau and regulates Tau level. FIG. 6A. Schematic of 4 Numb isoforms, differing with the presence or the absence of an insertion (arrowhead) in PTB domain arrowhead, and the presence or the absence of an insertion in the proline-rich region (PRR). FIG. 6B. Coimmunoprecipitation of Tau and 4 isoforms of Numb in HEK293 cells. Each Numb isoform was transfected in HEK293T cells together with a flag-tagged version of Tau and immunoprecipitation was perform 24 hours later with a flag antibody and blotted for Numb. […] FIG. 6C. Detection of Tau::GFP level in presence of 4 isoforms of Numb by western blot in HEK293. All the Numb isoforms were transfected with a Tau::GFP fusion protein in HEK293T cells and the levels of Tau::GFP was analysed by western blot 48 hours after transfection. FIG. 6D. Schematic representation of DNA construct of a human-medulloblastoma-derived cell line (DAOY) expressing human Tau fused with EGFP (Lasagna-Reeves et al., 2016). Additionally, this cell line expresses DsRed upstream of an internal ribosomal entry site (IRES), which is translated independently of the Tau-GFP protein. DsRed-IRES-Tau::EGFP expressing cells were used to assess the abundance of Tau by monitoring the Tau-GFP to DsRed fluorescence ratio. FIG. 6E. DsRed and Tau::EGF expression in Daoy cells, transfected with Myc only construct. FIGS. 6F-J. Fluorescence-activated cell sorting (FACs) analysis of the 4 Numb isoforms affected 3 days after transfection on ratio DsRed versus DsRed and GFP-positives cells compared to the control (Myc-Tag). FIG. 6K Quantification represents fold change for 5 experiments, +/− SEM, **p≤0.001; n.s. non-significant Anova 1-way test.
Numb72::Myc. HEK293T cells were transfected with Jet Prime using the following constructs Tau::Flag, Tau::GFP, Numb65, Numb66, Numb71 and Numb72.
Cells were harvested, and lysed in a NP-40 buffer (50 mm TRIS, pH 8.0, 150 mm NaCl, 1.0% NP-40 with Complete Protease Inhibitor Cocktail (Roche)). For immunoblotting, 40 μg of protein samples for in vivo blot and 10 ug for in vitro blot were loaded on a 10% acrylamide SDS-PAGE gels for separation by electrophoresis migration and then transferred onto PVDF membranes using transblot machine (Millipore). […] The primary antibody was detected with an HRP-conjugated goat anti-rabbit (1:10,000; Jackson Immunoresearch) in 0.5% dry milk in TBST. […]
To determine whether increasing the levels of Numb could affect the levels of Tau, the inventors co-expressed all isoforms of Numb together with a Tau::Venus fusion protein in HEK293T cells and analyzed the levels of Tau::Venus by western blot 48 hours after transfection.

Tau [2] = test: Dot blot of monomeric and oligomeric Tau in the media of HEK293T cells expressing Tau; details: media collected 24 h after doxycycline, vs GFP control
Method: FIGS. 9A-B: Numb72 stimulates secretion of the monomeric form of Tau in the extracellular media in cell lines, but not oligomeric (toxic) Tau. FIG. 9A. Dot blot of monomeric Tau levels (5A6) and oligomer of Tau (T22) in the media of HEK293T stable inducible cells line expressing Tau transfected with either GFP (Control) or Numb72. Tau expression was activated by adding Doxycycline 6 h after transfection and the media collected 24 h later for Dot-blot. FIG. 9B. Quantification of extracellular Tau levels; data are mean±SEM, n.s non-significant; *p<0.05. Student's t test, n=6 for Tau5A6 and n=4 for T22.
The impact of Numb on the secretion of monomeric and oligomeric Tau was assessed. A cell line (HEK293T) expressing Tau was transfected with either GFP (Control) or Numb72, and the monomeric Tau (5A6) and oligomeric Tau (T22) levels were assessed in the cell media by dot blot assay on the collected culture medium.

B1: Numb-72: 72 kDa Numb isoform with long PTB domain and long PRR; human isoform 1 (SEQ ID NO: 1); expressed by transfection (protein)
chain: MNKLRQSFRRKKDVYVPEASRPHQWQTDEEGVRTGKCSFPVKYLGHVEVDESRGMHICEDAVKRLKAERKFFKGFFGKTGKKAVKAVLWVSADGLRVVDEKTKDLIVDQTIEKVSFCAPDRNFDRAFSYICRDGTTRRWICHCFMAVKDTGERLSHAVGCAFAACLERKQKREKECGVTATFDASRTTFTREGSFRVTTATEQAEREEIMKQMQDAKKAETDKIVVGSSVAPGNTAPSPSSPTSPTSDATTSLEMNNPHAIPRRHAPIEQLARQGSFRGFPALSQKMSPFKRQLSLRINELPSTMQRKTDFPIKNAVPEVEGEAESISSLCSQITNAFSTPEDPFSSAPMTKPVTVVAPQSPTFQANGTDSAFHVLAKPAHTALAPVAMPVRETNPWAHAPDAANKEIAATCSGTEWGQSSGAASPGLFQAGHRRTPSEADRWLEEVSKSVRAQQPQASAAPLQPVLQPPPPTAISQPASPFQGNAFLTSQPVPVGVVPALQPAFVPAQSYPVANGMPYPAPNVPVVGITPSQMVANVFGTAGHPQAAHPHQSPSLVRQQTFPHYEASSATTSPFFKPPAQHLNGSAAFNGVDDGRLASADRHTEVPTGTCPVDPFEAQWAALENKSKQRTNPSPTNPFSSDLQKTFEIEL
modifications: homo sapiens
notes: 72 kDa Numb isoform with long PTB domain and long PRR; expressed by transfection
- intracellular Tau::GFP levels (Tau::GFP fusion protein): induced a decrease of Tau::GFP levels
- proportion of cells with low levels of Tau-GFP (Tau-GFP over DsRed) (human Tau fused with GFP): increased the proportion of cells with low levels of Tau-GFP
- levels of Tau::Venus by western blot (Tau [1]): significantly reduced the levels of Tau
- secretion of monomeric Tau (5A6) in the cell media (Tau [2]): stimulates the secretion of monomeric Tau
- secretion of oligomeric Tau (T22) in the cell media (Tau [2]): not of toxic (oligomeric) Tau
